{"source": "paper PMC7187349", "about": "“Preparative and Kinetic Analysis of β‐1,4‐ and β‐1,3‐Glucan Phosphorylases Informs Access to Human Milk Oligosaccharide Fragments and Analogues Thereof” (Chembiochem, 2019)", "assay_in_all_cases": "phosphorylase kinetics, synthetic direction", "format_in_all_cases": "biochemical, Acetivibrio thermocellus", "conditions_in_all_cases": "acceptor cellobiose (1), matched acceptor; apparent", "key": {"[1]": {"substrate": "O=P(O)(O)O[C@H]1O[C@H](CO)[C@@H](O)[C@H](O)[C@H]1O", "excerpt": "(§1) phosphorylase kinetics, synthetic direction on cellodextrin phosphorylase (CDP)"}, "[2]": {"substrate": "N[C@H]1[C@@H](OP(=O)(O)O)O[C@H](CO)[C@@H](O)[C@@H]1O", "excerpt": "as §1"}, "[3]": {"substrate": "O=P(O)(O)O[C@H]1O[C@H](CO)[C@H](O)[C@H](O)[C@H]1O", "excerpt": "as §1"}}}
{"protein": "cellodextrin phosphorylase (CDP) (Acetivibrio thermocellus) (protein, wild type, GH94, recombinant from Escherichia coli; homodimer) MITKVTARNNKITPVELLNQKFGNKINLGNFADAVFTDAAFKNVAGIANLPMKAPVMQVLMENCIVSKYLKQFVPDRSVCFVEEGQKFYIVLEDGQKIEVPEDVNKALKATVSDVKHWAGYLTEDGEHVIDLLKPAPGPHFYVNLLIGNRLGFKRTLQTTPKSVVDRFGRGSFRSHAATQVLATRFDMRQEENGFPANRQFYLYEDGKQIFYSALIDDNIVEATCKHSCNRTVIKYKTACNLEITRTIFLVPHKKGFPLATELQRIEIKNASDKARNLSITYTGMFGTGAVHAIFEDVTYTNVIMQSAALYNDKGEFIGITPDYYPEEFKQDTRFVTMIVRNGDEKSFPQSFCTDYNDFVGTGTLEHPAGGCNLNNKLNRKGPGFFALGAPFTVEPGKTVIIDTFTGLSSSKDNENYSDAVMLRELDNLLRYFEKSESVEETLNEIINFHENYGKYFQFNTGNKLFDSGFNRNLAFQVLYQTFMSRSFGQTQKGYREIGFREIQDLFASMYYFINIGYQDFVKELLFEWTANVYKMGYANHNFYWVGKQPGLYSDDSLWLLQAYYRYIIYTKDTSVLNEEVPVADGNNEKRAVRETLKAIIQYSACISVGDHGLPLLDLADWNDCLKIASNSIDGATKEKLYYEQLKKTNGKYGDRFMSDYSESVMNAFLLKLAIDHLAEIATLDNDTQLAQQMSELSKEVTDRIQKHAWKENFFARVLINRYKDGSYTYLGAKGDKLSADPNIDGVYFLNSFAWSVLSDVATDEQIAIMVDVIKKHLLTPYGLRLVTPADLNKIANDTATGHYFFGDRENGAVFKHASMMAVAALIKAAKKVKDNELAKEMARIAYFMIDLVLPYKNLENPFQVAGNPRICTQYINTDTGENIGPLLSGTATWLNLNLISLAGIEYTRDGISFNPILREEETQLNFTLKAPKCSYKFSITKPVGFARMESSEYELFVDGQKIDNTVIPMYTDEKEHIVTLKFK", "values": [{"measurement": "Km", "setting": "[1]", "result": "3000 ± 600", "unit": "µM"}, {"measurement": "kcat", "setting": "[1]", "result": "16.4 ± 0.7", "unit": "s⁻¹"}, {"measurement": "kcat/Km", "setting": "[1]", "result": 5500, "unit": "M⁻¹ s⁻¹"}, {"measurement": "Km", "setting": "[2]", "result": "1600 ± 200", "unit": "µM"}, {"measurement": "kcat", "setting": "[2]", "result": "0.08 ± 0.003", "unit": "s⁻¹"}, {"measurement": "kcat/Km", "setting": "[2]", "result": 50, "unit": "M⁻¹ s⁻¹"}, {"measurement": "Km", "setting": "[3]", "result": "9300 ± 1100", "unit": "µM"}, {"measurement": "kcat", "setting": "[3]", "result": "0.60 ± 0.02", "unit": "s⁻¹"}, {"measurement": "kcat/Km", "setting": "[3]", "result": 60, "unit": "M⁻¹ s⁻¹"}]}
